Substitutions are numbered along the chain they refer to. In names and notes the source's numbering stands.
Legend:
SpyCatcher002 = assay: 0.5 µM each, PBS pH 7.5, 25 °C, SDS-PAGE with Coomassie staining (FIG. 15A)
Target sequence in this assay (chain, as listed by the source): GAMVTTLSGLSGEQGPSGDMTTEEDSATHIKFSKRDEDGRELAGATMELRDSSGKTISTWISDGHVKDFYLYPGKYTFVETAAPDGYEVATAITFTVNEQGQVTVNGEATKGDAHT

AP-SpyTag002-MBP = target: T1, AP-SpyTag002-MBP; assay: 0.5 µM each, PBS pH 7.5, 25 °C, SDS-PAGE with Coomassie staining (FIG. 16)
T1 construct: not shown: AP peptide tag for site-specific biotinylation; only primer DNA is printed for it

SpyTag002 T3H-MBP
percent increase in activity against SpyTag002 (SEQ ID NO: 3) (SpyCatcher002): 35%

B1: SpyCatcher002 D5A variant with proline at position 92 and aspartic acid at position 100 (SEQ ID NO:47) (designed binder)
chain: GAMVATLSGLSGEQGPSGDMTTEEDSATHIKFSKRDEDGRELAGATMELRDSSGKTISTWISDGHVKDFYLYPGKYTFVETAAPDGYEVATPITFTVNEDGQVTVNGEATKGDAHT
reaction rate (second-order rate constant) (AP-SpyTag002-MBP): 1.22 µM⁻¹ min⁻¹

B2: SpyCatcher002 D5A variant with aspartic acid at position 100 (SEQ ID NO:46) (designed binder)
chain: B1 chain with P92A
reaction rate (second-order rate constant) (AP-SpyTag002-MBP): 0.93 µM⁻¹ min⁻¹

B3: SpyCatcher002 D5A variant with proline at position 92 (SEQ ID NO:45) (designed binder)
chain: B1 chain with D100Q
reaction rate (second-order rate constant) (AP-SpyTag002-MBP): 0.84 µM⁻¹ min⁻¹

Reference: patent US20220119459A1 (OXFORD UNIVERSITY INNOVATION, published 2022)
